# US11285274B2, “Methods for the systemic delivery of therapeutic agents to the pulmonary system using a droplet delivery device” (PNEUMA RESPIRATORY, INC., priority 2016, dated 2022)
# Several values for one entry are separate records, joined by “and”; a condition that tells them apart may be missing. Equal entries are not always repeated.
# Tests used:
# [1] = tested on: patients with cystic fibrosis; details: cited from earlier work
# [2] = Size exclusion chromatography (SEC) stability after aerosol generation with test device; assay type: physicochemical; details: for Peak Area %, Peak 1 / Peak Area %, Peak 2 / Peak Area %, Peak 3: Insulin (Humalog Kwikpen 200 U/ml)
# Text: Alternately, to determine the stability of active agent after droplet generation, the generated stream of droplets including the active agent may be collected and […] may be employed to monitor for any changes in large molecule aggregation and protein fragment content. Soluble protein aggregates and protein fragment content may be calculated by comparing respective peak area under the SEC-HPLC curve of dispensed protein solutions with controls (solutions remaining in the device reservoir). Drug solutions for testing include Enbrel, (ENBREL® single-use prefilled syringes in 25 mg (0.51 mL of a 50 mg/mL solution of etanercept), and insulin, (Humalog, 200 units/ml, 3 ml […] is performed with a YarraTM 3 um SEC-2000 LC column 300×7.8 mm, SecurityGuard cartridge kit and SecurityGuard cartridges GFC-2000, 4×3 mm ID. Fifty microliters of Enbrel from the syringe (ENBREL® single-use prefilled syringes in 25 mg/0.51 mL of a 50 mg/mL solution of etanercept) is diluted (4:1) (4 parts, 200 mcl of the mobile phase buffer solution to 1 part, 50 mcl Enbrel from syringe). Fifty microliter of the diluted Enbrel is injected and separation was performed at a flow rate of 1.0 ml/min. The mobile phase buffer system included a PHOS. BUFF. SALINE. […] UV detection is performed at 280 nm. […] Aerosol collection and SEC is performed in a similar fashion as for the Enbrel analysis and aerosol collection. […] Fifty microliters of the collected aerosol spray is injected onto the SEC column for analysis, while 50 mcl of the […] insulin solution is injected onto the SEC column for control samples.
# [3] = Gel electrophoresis of active agent after droplet generation; assay type: physicochemical
# Text: To determine the stability of active agent after droplet generation, the generated stream of droplets including the active agent is collected and the molecular weight of the active agent is verified using gel electrophoresis.
# [4] = aerosolized with test device (20 actuations), SEC
# [5] = Insulin aerosolized with test device
# [6] = Enbrel aerosolized with test device
# [7] = Enbrel aerosolized, average of S1 and S2
# [8] = Enbrel diluted 4:1 (10 mg/ml), control (not aerosolized), SEC, UV 280 nm
compound,measurement,setting,value
NC[C@H]1O[C@H](O[C@H]2[C@H](O)[C@@H](O[C@H]3O[C@H](CO)[C@@H](O)[C@H](N)[C@H]3O)[C@H](N)C[C@@H]2N)[C@H](N)C[C@@H]1O [tobramycin],pulmonary function and kidney side effects,[1]; administration by inhalation,significantly improves pulmonary function without severe side effects to kidney functions
same,serum levels and kidney toxicity,[1]; intravenous administration,very high serum levels that are toxic to the kidneys
Insulin,"Peak Area %, Peak 1",[2]; [4],27.881% and 28.721%
same,"Peak Area %, Peak 2",[2]; [4],69.780% and 67.807%
same,"Peak Area %, Peak 3",[2]; [4],2.184% and 2.797%
same,"Peak Area %, Peak 1","[2]; control (not aerosolized), SEC",29.926%
same,"Peak Area %, Peak 2","[2]; control (not aerosolized), SEC",69.630%
same,"Peak Area %, Peak 3","[2]; control (not aerosolized), SEC",0%
same,fraction of the ejected dose forming a fragment which elutes at ~25 minutes,[2]; [5],2.5%
same,fraction of the ejected dose structurally unchanged,[2]; [5],97.5%
same,"Peak Area %, Peak 3, Avg.","[2]; Insulin aerosolized, average of S1 and S2",2.4905%
adalimumab,change in electrophoretic mobility (molecular weight) of post-aerosol active agent from control,[3],negligible change
bevacizumab,change in electrophoretic mobility (molecular weight) of post-aerosol active agent from control,[3],negligible change
etanercept [Enbrel],change in electrophoretic mobility (molecular weight) of post-aerosol active agent from control,[3],negligible change
same,fraction of the dose forming molecular fragments with elution times of 13 and 25 minutes,[2]; [6],4.6%
same,fraction structurally unchanged after delivering an aerosol dose,[2]; [6],95.4%
same,"Peak Area %, Peak 4, Avg.",[2]; [7],0.3545%
same,"Peak Area %, Peak 5, Avg.",[2]; [7],4.2755%
same,"Peak Area %, Peak 4",[2]; [8],0%
same,"Peak Area %, Peak 5",[2]; [8],0%
